Measured values as given in patent publication US20190040149A1.

What was measured:
cyno PD-1_Fc (cyno) = assay: bio-layer interferometry (ForteBio), Fab in solution, cyno PD-1_Fc on sensor tip
[1] = target: human PD-1 on cells (CHO cells; T cells in the mixed lymphocyte reaction) (human) (UniProt Q15116); assay: cell-based or functional assay
[2] = target: human PD-1 on cells (CHO cells; T cells in the mixed lymphocyte reaction) (human) (UniProt Q15116); assay: flow cytometry, remaining PD-L2-FITC signal after 100 nM IgG; competitor PD-L2-FITC

Sequence of human PD-1 on cells (CHO cells; T cells in the mixed lymphocyte reaction) (human) (Q15116 25-288 limits assumed): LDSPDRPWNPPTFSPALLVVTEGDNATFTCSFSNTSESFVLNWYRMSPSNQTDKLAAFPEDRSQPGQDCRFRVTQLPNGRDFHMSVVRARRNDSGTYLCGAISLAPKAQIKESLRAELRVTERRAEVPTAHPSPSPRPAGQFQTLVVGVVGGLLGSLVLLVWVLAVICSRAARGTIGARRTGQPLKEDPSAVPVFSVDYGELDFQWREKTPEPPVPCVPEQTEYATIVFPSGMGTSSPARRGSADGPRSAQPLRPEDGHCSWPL
Sequence of Fab of pembrolizumab (VH): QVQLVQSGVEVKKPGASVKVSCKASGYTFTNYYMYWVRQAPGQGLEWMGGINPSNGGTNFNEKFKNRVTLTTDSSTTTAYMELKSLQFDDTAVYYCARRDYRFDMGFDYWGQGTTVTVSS
Sequence of Fab of pembrolizumab (VL): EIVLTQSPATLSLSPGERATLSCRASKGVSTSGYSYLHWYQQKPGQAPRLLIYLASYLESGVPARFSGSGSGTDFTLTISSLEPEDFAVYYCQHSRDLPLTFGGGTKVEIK

Row | Substance | Kd (cyno PD-1_Fc (cyno)) [nM] | IFNγ in supernatant, 0.01 nM IgG (IgG control, baseline of the fold change) [1] [pg/mL] | IFNγ in supernatant, 0.1 nM IgG (IgG control, baseline of the fold change) [1] [pg/mL] | IFNγ in supernatant, 1 nM IgG (IgG control, baseline of the fold change) [1] [pg/mL] | IFNγ in supernatant, 10 nM IgG (IgG control, baseline of the fold change) [1] [pg/mL] | IFNγ in supernatant, 100 nM IgG (IgG control, baseline of the fold change) [1] [pg/mL] | IL-2 in supernatant, 0.01 nM IgG (IgG control, baseline of the fold change) [1] [pg/mL] | IL-2 in supernatant, 0.1 nM IgG (IgG control, baseline of the fold change) [1] [pg/mL] | IL-2 in supernatant, 1 nM IgG (IgG control, baseline of the fold change) [1] [pg/mL] | IL-2 in supernatant, 10 nM IgG (IgG control, baseline of the fold change) [1] [pg/mL] | IL-2 in supernatant, 100 nM IgG (IgG control, baseline of the fold change) [1] [pg/mL] | MFI (PD-L2-FITC) [2] [MFI]
1 | Fab of nivolumab | 1.2 | – | – | – | – | – | – | – | – | – | – | –
2 | Fab of pembrolizumab | 0.47 | – | – | – | – | – | – | – | – | – | – | –
3 | IgG Control (antibody) | – | 14900 | 11000 | 11600 | 13500 | 14900 | 515 | 509 | 500 | 522 | 619 | 183000
